Measured values reported in IntAct's records for PubMed 21102444.

B1: Protein DOM34 (Saccharomyces cerevisiae), P33309 (parent)
chain: MKVISLKKDSFNKGGAVITLLPEDKEDLFTVYQIVDKDDELIFKKKFTSKLDEAGKKKSTDLVKLKIKVISEDFDMKDEYLKYKGVTVTDESGASNVDIPVGKYLSFTLDYVYPFTIIKQNFNKFMQKLLNEACNIEYKSDTAAVVLQEGIAHVCLVTSSSTILKQKIEYSMPKKKRTTDVLKFDEKTEKFYKAIYSAMKKDLNFDKLKTIILCSPGFYAKILMDKIFQYAEEEHNKKILDNKGMFFIAHCSTGYLQGINEVLKNPLYASKLQDTKYSKEIMVMDEFLLHLNKDDDKAWYGEKEVVKAAEYGAISYLLLTDKVLHSDNIAQREEYLKLMDSVESNGGKALVLSTLHSLGEELDQLTGIACILKYPLPDLDEDDGEE
partner: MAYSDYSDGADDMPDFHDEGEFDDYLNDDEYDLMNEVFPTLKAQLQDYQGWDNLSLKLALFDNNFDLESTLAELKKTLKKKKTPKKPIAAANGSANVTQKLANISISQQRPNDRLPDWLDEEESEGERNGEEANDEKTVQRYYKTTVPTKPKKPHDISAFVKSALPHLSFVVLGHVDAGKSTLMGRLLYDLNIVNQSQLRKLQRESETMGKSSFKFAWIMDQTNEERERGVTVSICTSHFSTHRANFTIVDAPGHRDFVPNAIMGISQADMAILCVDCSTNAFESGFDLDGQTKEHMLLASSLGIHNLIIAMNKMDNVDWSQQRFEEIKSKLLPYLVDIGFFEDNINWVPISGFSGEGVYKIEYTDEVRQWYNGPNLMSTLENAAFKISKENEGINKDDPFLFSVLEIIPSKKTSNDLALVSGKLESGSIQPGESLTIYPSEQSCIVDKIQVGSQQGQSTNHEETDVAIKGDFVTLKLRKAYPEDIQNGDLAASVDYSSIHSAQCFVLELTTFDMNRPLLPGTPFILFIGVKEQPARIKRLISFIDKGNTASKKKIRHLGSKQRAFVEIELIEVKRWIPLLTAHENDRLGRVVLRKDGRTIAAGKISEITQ
B2: Elongation factor 1 alpha-like protein (Saccharomyces cerevisiae), P32769 (parent)
chain: B1 partner
partner: B1 chain

Variants of: B1
Conditions: with hbs1_yeast HBS1, P32769

Row | effect of a mutation on the interaction | Variant
1 | disrupting interaction | K174A;K175A;K176A;R177A
2 | disrupting interaction | E361A;Q364A
3 | disrupting interaction | Y300A;E361A
4 | disrupting interaction | E361R
5 | disrupting interaction | S215A;P216A;F218A

Variants of: B2
Conditions: with dom34_yeast DOM34, P33309

Row | effect of a mutation on the interaction | Variant
6 | disrupting interaction | L520R
7 | disrupting interaction | R557A;H558A
8 | disrupting interaction | R256A;D257A;F258A
9 | disrupting interaction | R517E
